The numbers were not newly measured in paper PMC9453958, which cites them from elsewhere.

For the series, the target named is His64 (UniProt position 63, ILNNGHAFNVE). Description: kinetics. As to conditions: wild-type zinc enzyme during catalysis.

One may read the pKa as the pH at which an ionisable group is half protonated. As to “Carbonic anhydrase II (HCA II) (Homo sapiens)”, the pKa is reported as 7.2 ± 0.1.
